T1: Purified FHR3 with C-terminal biotinylated Avitag (human, UniProt Q02985 19-330, biotin on the C-terminal Avitag)
T1 construct: Immobilised on a NeutrAvidin NLC chip for SPR; also called complement factor H-related protein 3; hFHR3; not shown: C-terminal biotinylated Avitag
T1 sequence (looked up): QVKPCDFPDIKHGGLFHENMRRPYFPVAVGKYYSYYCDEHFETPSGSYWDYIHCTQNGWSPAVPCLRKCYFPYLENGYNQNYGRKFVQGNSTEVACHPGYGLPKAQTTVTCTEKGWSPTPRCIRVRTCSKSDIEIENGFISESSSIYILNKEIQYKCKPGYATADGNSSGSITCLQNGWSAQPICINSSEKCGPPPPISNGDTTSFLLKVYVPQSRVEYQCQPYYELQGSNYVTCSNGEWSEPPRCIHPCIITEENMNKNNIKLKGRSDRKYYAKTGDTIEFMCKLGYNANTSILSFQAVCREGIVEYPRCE

B1: Bifunctional compound (BFC-2) (other)
peptide: {CH2CO}-FVPTT[Bip][NMeA][Bip][NMeA]EAPCGK([4‑formylbenzoyl-int‑CC6])-NH2
modifications: thioether N-13; reading uncertain; also: 4-formylbenzoyl joined to int-CC6 as oxime
B2: Bifunctional compound (BFC-17) (other)
peptide: {CH2CO}-FR[NMeF]SVNY[Sar]RK([dPEG9 diacid-tri‑GalNAc ASGPR ligand])[Tic]N[NMeF]CG-NH2
modifications: thioether N-14; reading uncertain
B3: Cyclic peptide compound (C13) (peptide)
peptide: {CH2CO}-FK[NMeA]SLHW[NMeA]RPDRCG-NH2
modifications: thioether N-13
SMILES: CC(C)C[C@@H]1NC(=O)[C@H](CO)NC(=O)[C@H](C)N(C)C(=O)[C@H](CCCCN)NC(=O)[C@H](Cc2ccccc2)NC(=O)CSC[C@@H](C(=O)NCC(N)=O)NC(=O)[C@H](CCCNC(=N)N)NC(=O)[C@H](CC(=O)O)NC(=O)[C@@H]2CCCN2C(=O)[C@H](CCCNC(=N)N)NC(=O)[C@H](C)N(C)C(=O)[C@H](Cc2c[nH]c3ccccc23)NC(=O)[C@H](Cc2c[nH]cn2)NC1=O
notes: Synthetic cyclic peptide; also called FHR3 receptor ligand compound (C13)
B4: Cyclic peptide compound (C12) (peptide)
peptide: {CH2CO}-FR[NMeF]SKNY[Sar]RD[Tic]N[NMeF]CG-NH2
modifications: thioether N-14; also: classes: D-residues
notes: Synthetic cyclic peptide with non-natural residues; also called FHR3 receptor ligand compound (C12)
B5: Cyclic peptide compound (C15) (peptide)
peptide: {CH2CO}-F[NMeF][NMeA]SLHW[NMeA]RKDRCG-NH2
modifications: thioether N-13
notes: also called FHR3 receptor ligand compound (C15)
B6: Cyclic peptide compound (C16) (peptide)
peptide: {CH2CO}-FR[NMeF]SVNY[Sar]RK[Tic]N[NMeF]CG-NH2
modifications: thioether N-14
SMILES: CC(C)[C@@H]1NC(=O)[C@H](CO)NC(=O)[C@H](Cc2ccccc2)N(C)C(=O)[C@H](CCCNC(=N)N)NC(=O)[C@H](Cc2ccccc2)NC(=O)CSC[C@@H](C(=O)NCC(N)=O)NC(=O)[C@H](Cc2ccccc2)N(C)C(=O)[C@H](CC(N)=O)NC(=O)[C@@H]2Cc3ccccc3CN2C(=O)[C@H](CCCCN)NC(=O)[C@H](CCCNC(=N)N)NC(=O)CN(C)C(=O)[C@H](Cc2ccc(O)cc2)NC(=O)[C@H](CC(N)=O)NC1=O
notes: Synthetic cyclic peptide; also called FHR3 receptor ligand compound (C16)
B7: Cyclic peptide compound (C14) (peptide)
peptide: {CH2CO}-FR[NMeF]SVNYKRS[Tic]N[NMeF]CG-NH2
modifications: thioether N-14
SMILES: CC(C)[C@@H]1NC(=O)[C@H](CO)NC(=O)[C@H](Cc2ccccc2)N(C)C(=O)[C@H](CCCNC(=N)N)NC(=O)[C@H](Cc2ccccc2)NC(=O)CSC[C@@H](C(=O)NCC(N)=O)NC(=O)[C@H](Cc2ccccc2)N(C)C(=O)[C@H](CC(N)=O)NC(=O)[C@@H]2Cc3ccccc3CN2C(=O)[C@H](CO)NC(=O)[C@H](CCCNC(=N)N)NC(=O)[C@H](CCCCN)NC(=O)[C@H](Cc2ccc(O)cc2)NC(=O)[C@H](CC(N)=O)NC1=O
notes: Synthetic cyclic peptide; also called FHR3 receptor ligand compound (C14)
B8: Bifunctional compound (BFC-14) (other)
peptide: {CH2CO}-FK([dPEG9 diacid-tri‑GalNAc ASGPR ligand])[NMeA]SLHW[NMeA]RPDRCG-NH2
modifications: thioether N-13; reading uncertain
B9: Cyclic peptide (C5) (peptide)
peptide: {CH2CO}-FVPTT[Bip][NMeA][Bip][NMeA]EAPCGK(4‑oxopentanoyl)-NH2
modifications: thioether N-13
notes: also called PCSK9 ligand (C5); PCSK9 receptor ligand compound (C5)
B10: Bifunctional compound (BFC-4) (other)
peptide: {CH2CO}-FVPTT[Bip][NMeA][Bip][NMeA]EAPCGK-NH2
modifications: thioether N-13; not fully specified (residue 15); also: int-DD2 linker joined by two oximes to int-CC7
B11: Bifunctional compound (BFC-9) (other)
peptide: {CH2CO}-FVPTT[Bip][NMeA][Bip][NMeA]EAPCGK([Lys(4-oxopentanoyl)-int‑CC7])-NH2
modifications: thioether N-13; not fully specified; also: further groups not given here
notes: BFC-8 and BFC-9 come from the same reaction of int-DD6 with int-CC7
B12: Bifunctional compound (BFC-8) (other)
peptide: {CH2CO}-FVPTT[Bip][NMeA][Bip][NMeA]EAPCGK([Lys(4-oxopentanoyl)-int‑CC7])-NH2
modifications: thioether N-13; not fully specified; also: further groups not given here
notes: as for B11

Positions of bridges follow the written chain, without caps; N, C: chain ends. Non-standard residues stand in square brackets, D forms with d. Groups on a side chain read outwards from the residue. int‑CC7 = mannose-6-phosphonate M6PR ligand; tri‑GalNAc ASGPR ligand = not defined here; Bip = N[C@@H](Cc1ccc(-c2ccccc2)cc1)C(=O)O; NMeF = CN[C@@H](Cc1ccccc1)C(=O)O; Tic = O=C(O)[C@@H]1Cc2ccccc2CN1; int‑CC6 = not defined here; NMeA = CN[C@@H](C)C(=O)O; Sar = CNCC(=O)O

Data on twelve molecules can be found in patent publication US20230398224A1 (Novartis, published 2023).

As a reminder, the Kd is a measure of binding affinity in units of concentration.

T3 sequence (Q8NBP7 31-692): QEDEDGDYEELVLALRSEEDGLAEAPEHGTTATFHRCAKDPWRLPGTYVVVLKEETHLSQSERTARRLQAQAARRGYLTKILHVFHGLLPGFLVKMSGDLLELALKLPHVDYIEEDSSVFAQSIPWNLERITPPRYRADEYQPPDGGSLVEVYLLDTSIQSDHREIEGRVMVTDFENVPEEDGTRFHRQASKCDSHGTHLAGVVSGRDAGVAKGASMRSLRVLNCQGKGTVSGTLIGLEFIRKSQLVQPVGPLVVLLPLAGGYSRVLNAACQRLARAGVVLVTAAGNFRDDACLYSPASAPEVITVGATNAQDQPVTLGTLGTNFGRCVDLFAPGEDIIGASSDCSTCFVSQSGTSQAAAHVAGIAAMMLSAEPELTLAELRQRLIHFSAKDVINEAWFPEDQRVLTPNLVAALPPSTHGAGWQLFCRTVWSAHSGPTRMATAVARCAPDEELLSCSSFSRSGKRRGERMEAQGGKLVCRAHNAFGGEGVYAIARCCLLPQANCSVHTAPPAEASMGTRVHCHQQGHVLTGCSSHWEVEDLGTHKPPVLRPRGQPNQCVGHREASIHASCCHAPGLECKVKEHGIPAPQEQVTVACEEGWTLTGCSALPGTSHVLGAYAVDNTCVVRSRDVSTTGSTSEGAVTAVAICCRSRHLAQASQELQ

The target in one assay is T2, M6PR.
T2 construct: also called mannose-6-phosphate receptor; M6P receptor
Kind of assay: SPR, no details given; binding is through the mannose-6-phosphate moiety of the conjugate. For orientation: SPR reads the build-up and loss of mass on a sensor chip optically.
For B1, the Kd is 7.19 nM.

A further assay deals with T1, Purified FHR3 with C-terminal …. As to the kind of experiment: SPR, ProteOn XPR36; biotinylated FHR3 on NeutrAvidin NLC chip. How it is done: SPR was used to obtain the binding data for FHR3 receptor ligands compounds (C12), (C13), (C14), (C15) and (C16), either alone or as part of the bifunctional compounds (BFC13), (BFC14), (BFC15), (BFC16) and (BFC17), respectively.
(§1) SPR Binding experiments were performed on a Proteon XPR36 instrument (Bio-Rad Laboratories). Purified FHR3 with C-terminal biotinylated Avitag was used for the assay. Biotinylated FHR3 was incubated with fivefold molar excess of bifunctional compounds (BFC13), (BFC14), (BFC15), (BFC16) or (BFC17), or compounds (C12), (C13), (C14), (C15) or (C16), and immobilized onto a Neutravidin coated sensor chip. (NLC chip, Bio-Rad Laboratories, Inc). After conditioning the chip by injecting running buffer (20 mM Tris pH7.5, 300 mM NaCl, 25 mM CaCl₂, 2 mM betamercaptoethanol, 2% DMSO and 0.05% Tween-20) at a flow rate of 0.1 mL/min for 240 s, FHR3 was injected at a protein concentration of 0.02 mg/ml in running buffer with fivefold molar excess of bifunctional compound and a flow rate of 0.03 mL/min followed by 4 washes with running buffer with 1 μM of bifunctional compound (0.1 mL/min for 60 seconds each).
On to B2, for which the Kd came to 55 nM. With B3, the Kd came to 48 nM. The molecule B4 registered a Kd of 8 nM. B5 gave a Kd of 15 nM.

The molecule B6 came in with a Kd of 13 nM.

For B7, the Kd came out at 162 nM.

As to B8, the affinity, expressed as Kd, was 80 nM.

The next assay has as its target T3, Purified recombinant full length human PCSK9 with C-terminal biotinylated Avitag (human, UniProt Q8NBP7 31-692, biotin on the C-terminal Avitag).
T3 construct: also called hPCSK9; proprotein convertase subtilisin/kexin type 9; not shown: C-terminal biotinylated Avitag
As to the kind of experiment: SPR, ProteOn XPR36; biotinylated human PCSK9 on NeutrAvidin NLC chip. How it is done: SPR was used to obtain the binding data for PCSK9 receptor ligand compound (C5), either alone or as part of the bifunctional compounds (BFC1), respectively.
as §1, with “Purified recombinant full length human PCSK9” for “Purified FHR3”, “Biotinylated human PCSK9” for “Biotinylated FHR3”, “bifunctional compound (BFC1)” for “bifunctional compounds (BFC13), (BFC14), (BFC15), (BFC16)”, “or compound (C₅),” for “or (BFC17), or compounds (C12), (C13), (C14), (C15) or (C16),”, “s, PCSK9 protein” for “s, FHR3”
B9: the Kd stood at 1.2 nM. Consider B1, for which the Kd was determined as 9.2 nM. Regarding B10, the Kd worked out at 4.1 nM.

A further assay deals with T2, M6PR. As to the kind of experiment: SPR, no details given; binding is through the mannose phosphonate moiety of the conjugate.
With B11, the Kd was found to be 170 nM.

The molecule B12 registered a Kd of 480 nM. For B10, binding was characterised by a dissociation constant (Kd) of 110 nM.
